# Source: patent US20220135701A1 (Genentech, published 2022)
# Read-outs that look alike come from different tables or passages of the source.
# T1: mouse MerTK on mouse macrophages (mouse, UniProt Q60805 19-994)
# T1 sequence (looked up): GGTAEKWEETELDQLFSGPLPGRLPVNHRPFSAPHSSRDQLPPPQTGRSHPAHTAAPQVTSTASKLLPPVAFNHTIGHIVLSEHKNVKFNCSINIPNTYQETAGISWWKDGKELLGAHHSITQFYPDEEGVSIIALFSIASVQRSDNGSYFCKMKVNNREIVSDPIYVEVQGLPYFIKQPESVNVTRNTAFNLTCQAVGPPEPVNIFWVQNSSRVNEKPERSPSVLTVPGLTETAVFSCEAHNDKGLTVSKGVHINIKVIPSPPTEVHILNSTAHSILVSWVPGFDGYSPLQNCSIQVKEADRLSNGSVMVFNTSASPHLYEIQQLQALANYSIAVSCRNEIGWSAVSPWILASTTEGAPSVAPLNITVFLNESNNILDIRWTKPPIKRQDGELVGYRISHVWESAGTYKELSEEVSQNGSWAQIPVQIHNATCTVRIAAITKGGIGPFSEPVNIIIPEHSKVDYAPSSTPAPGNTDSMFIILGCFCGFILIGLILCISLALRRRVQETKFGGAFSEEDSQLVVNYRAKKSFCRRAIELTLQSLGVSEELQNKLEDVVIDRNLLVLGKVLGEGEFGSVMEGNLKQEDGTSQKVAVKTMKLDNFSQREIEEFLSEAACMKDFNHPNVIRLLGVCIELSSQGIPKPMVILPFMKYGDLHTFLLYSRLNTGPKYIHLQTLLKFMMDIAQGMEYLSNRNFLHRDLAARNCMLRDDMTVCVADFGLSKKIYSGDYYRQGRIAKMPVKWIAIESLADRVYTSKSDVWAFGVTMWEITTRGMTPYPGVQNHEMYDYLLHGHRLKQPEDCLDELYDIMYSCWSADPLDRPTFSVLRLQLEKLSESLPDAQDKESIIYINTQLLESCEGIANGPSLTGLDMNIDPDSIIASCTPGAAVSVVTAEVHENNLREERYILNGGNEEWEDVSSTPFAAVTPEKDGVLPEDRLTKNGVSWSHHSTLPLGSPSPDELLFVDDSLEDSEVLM
# T2: cynomolgus monkey MerTK (cynomolgus monkey, UniProt A0A2K5V1H9 32-505)
# T2 construct: Soluble analyte in SPR; also called Cyno MerTK
# T2 sequence: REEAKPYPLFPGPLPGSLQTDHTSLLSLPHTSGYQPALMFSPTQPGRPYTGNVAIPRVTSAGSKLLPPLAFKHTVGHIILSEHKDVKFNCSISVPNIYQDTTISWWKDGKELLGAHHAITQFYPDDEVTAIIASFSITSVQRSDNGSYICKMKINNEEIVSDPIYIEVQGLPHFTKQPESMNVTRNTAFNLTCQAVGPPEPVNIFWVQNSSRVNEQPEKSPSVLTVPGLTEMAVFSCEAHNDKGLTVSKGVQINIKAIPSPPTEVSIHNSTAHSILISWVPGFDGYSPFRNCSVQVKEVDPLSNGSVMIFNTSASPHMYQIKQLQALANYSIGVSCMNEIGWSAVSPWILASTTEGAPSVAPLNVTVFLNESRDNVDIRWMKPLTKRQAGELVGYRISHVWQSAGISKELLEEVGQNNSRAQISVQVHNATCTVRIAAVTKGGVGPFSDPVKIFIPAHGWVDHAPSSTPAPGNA
# T3: human MerTK (human, UniProt Q12866 26-499)
# T3 construct: also called HuMER
# T3 sequence: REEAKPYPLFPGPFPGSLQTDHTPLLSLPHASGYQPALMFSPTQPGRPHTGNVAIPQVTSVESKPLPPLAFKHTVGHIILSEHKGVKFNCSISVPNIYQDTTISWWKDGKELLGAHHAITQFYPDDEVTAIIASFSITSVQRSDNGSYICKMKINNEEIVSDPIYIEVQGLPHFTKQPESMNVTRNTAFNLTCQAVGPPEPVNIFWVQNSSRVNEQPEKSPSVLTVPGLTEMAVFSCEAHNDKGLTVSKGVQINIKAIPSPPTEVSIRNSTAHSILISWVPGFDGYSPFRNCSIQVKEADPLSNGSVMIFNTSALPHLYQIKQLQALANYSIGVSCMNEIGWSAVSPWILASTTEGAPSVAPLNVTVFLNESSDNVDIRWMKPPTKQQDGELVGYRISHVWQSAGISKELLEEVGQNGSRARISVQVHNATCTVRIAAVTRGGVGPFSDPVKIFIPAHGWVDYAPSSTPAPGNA
# Tests used:
# [1] = target: T1, mouse MerTK on mouse macrophages; experiment: cell-based or functional assay
# cynomolgus monkey MerTK [2] = target: T2, cynomolgus monkey MerTK; experiment: SPR BIAcore T200, Ab captured, 37C
# Protocol: (§1) All binding affinity determinations were obtained using Surface Plasmon Resonance (SPR) measurements from a BIAcore™-T200 instrument. Briefly, each rabbit or humanized antibody was captured to achieve approximately 100 RU (Response Units). Then, 3-fold serial dilutions of MerTK from various species (0.4 nM to 100 nM) diluted in HBS-EP buffer (0.01M HEPES pH 7.4, 0.15M NaCl, 3 mM EDTA and 0.05% v/v surfactant P20) was injected into the BIAcore™-T200 instrument at 25° C. or 37° C. with a flow rate of 30 μl/min. Association rates (kₒₙ) and dissociation rates (koff) were calculated using a simple one-to-one Langmuir binding model (BIAcore T200 evaluation software version 2.0). The equilibrium dissociation constant (KD) was calculated as the ratio koff/kₒₙ.
# human MerTK [3] = target: T3, human MerTK; experiment: SPR BIAcore T200, Ab captured, 37C
# Protocol: as §1
# cynomolgus monkey MerTK [4] = target: T2, cynomolgus monkey MerTK; experiment: SPR BIAcore T200, Ab captured, 37C; remark: listed apart in the source
# Summary of the method: (§2)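 Rabbit or humanized antibody captured to ~100 RU; MerTK injected as 3-fold dilutions from 0.4 nM to 100 nM in HBS-EP (HEPES pH 7.4) at 30 μl/min, at 25° C. or 37° C. kon and koff fitted to a 1:1 Langmuir model; KD = koff/kon.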
# human MerTK [5] = target: T3, human MerTK; experiment: SPR BIAcore T200, Ab captured, 37C; remark: listed apart in the source
# Summary of the method: as §2
# human MerTK [6] = target: T3, human MerTK; experiment: SPR BIAcore T200, Ab captured, 37C; remark: listed apart in the source
Molecule,pAKT levels in macrophages incubated with the ligand [1],Kd (cynomolgus monkey MerTK [2]),Kd (human MerTK [3]),Kd (cynomolgus monkey MerTK [4]),Kd (human MerTK [5]),Kd (human MerTK [6])
recombinant human GAS6-Fc protein (from UniProt Q14393 31-678) (Fc fusion),84 pM,,,,,
"h13B4.v1 (antibody, V domains shown, also called h13B4.V1 (Parent); 13B4 Humanized mAb V1) VH: EQQLVESGEGLVQPGGSLRLSCAVSGFSLSSYAMGWVRQAPGKGLEWIGIINSYGNTYYANWAKGRFTISRDSSKNTVYLQMGSLRAEDMAVYFCARDPGVSSNLWGPGTLVTVSS VL: DVQMTQSPSTLSASVGDRVTITCQASQNIYSGLAWYQQKPGKPPKLLIYGASKLASGVPSRFSGSGSGTEFTLTISSLQPDDFATYYCQATYYSSNSVAFGGGTKVEIK",,5 nM,4.3 nM,5.6 nM,4.8 nM,4.8 nM
